B1: Serine/threonine-protein kinase RAD53 (Saccharomyces cerevisiae), P22216 (parent)
chain: MENITQPTQQSTQATQRFLIEKFSQEQIGENIVCRVICTTGQIPIRDLSADISQVLKEKRSIKKVWTFGRNPACDYHLGNISRLSNKHFQILLGEDGNLLLNDISTNGTWLNGQKVEKNSNQLLSQGDEITVGVGVESDILSLVIFINDKFKQCLEQNKVDRIRSNLKNTSKIASPGLTSSTASSMVANKTGIFKDFSIIDEVVGQGAFATVKKAIERTTGKTFAVKIISKRKVIGNMDGVTRELEVLQKLNHPRIVRLKGFYEDTESYYMVMEFVSGGDLMDFVAAHGAVGEDAGREISRQILTAIKYIHSMGISHRDLKPDNILIEQDDPVLVKITDFGLAKVQGNGSFMKTFCGTLAYVAPEVIRGKDTSVSPDEYEERNEYSSLVDMWSMGCLVYVILTGHLPFSGSTQDQLYKQIGRGSYHEGPLKDFRISEEARDFIDSLLQVDPNNRSTAAKALNHPWIKMSPLGSQSYGDFSQISLSQSLSQQKLLENMDDAQYEFVKAQRKLQMEQQLQEQDQEDQDGKIQGFKIPAHAPIRYTQPKSIEAETREQKLLHSNNTENVKSSKKKGNGRFLTLKPLPDSIIQESLEIQQGVNPFFIGRSEDCNCKIEDNRLSRVHCFIFKKRHAVGKSMYESPAQGLDDIWYCHTGTNVSYLNNNRMIQGTKFLLQDGDEIKIIWDKNNKFVIGFKVEINDTTGLFNEGLGMLQEQRVVLKQTAEEKDLVKKLTQMMAAQRANQPSASSSSMSAKKPPVSDTNNNGNNSVLNDLVESPINANTGNILKRIHSVSLSQSQIDPSKKVKRAKLDQTSKGPENLQFS
partner: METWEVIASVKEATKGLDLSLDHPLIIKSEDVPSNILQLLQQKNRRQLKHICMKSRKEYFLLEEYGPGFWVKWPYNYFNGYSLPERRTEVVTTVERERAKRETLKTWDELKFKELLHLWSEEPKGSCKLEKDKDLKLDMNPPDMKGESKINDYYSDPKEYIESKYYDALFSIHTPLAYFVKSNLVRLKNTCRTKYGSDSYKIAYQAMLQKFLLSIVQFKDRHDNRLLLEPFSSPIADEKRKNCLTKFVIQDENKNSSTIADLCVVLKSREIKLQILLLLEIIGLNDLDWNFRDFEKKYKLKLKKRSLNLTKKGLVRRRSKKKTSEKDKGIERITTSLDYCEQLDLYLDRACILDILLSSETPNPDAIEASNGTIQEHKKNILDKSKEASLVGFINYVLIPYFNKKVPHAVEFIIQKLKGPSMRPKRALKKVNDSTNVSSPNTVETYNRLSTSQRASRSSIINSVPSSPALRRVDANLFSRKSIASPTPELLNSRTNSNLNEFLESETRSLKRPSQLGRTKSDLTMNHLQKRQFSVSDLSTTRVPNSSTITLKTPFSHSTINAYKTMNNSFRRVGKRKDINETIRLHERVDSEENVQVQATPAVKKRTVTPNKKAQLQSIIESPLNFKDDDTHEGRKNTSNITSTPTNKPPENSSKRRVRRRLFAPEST

Variants of: B1
Details: with sld3_yeast SLD3, P53135

| effect of a mutation on the interaction | Variant |
| --- | --- |
| disrupting interaction | K227A |

Source: IntAct's records for PubMed 20865002
